The results in this text go back to US20230015713A1.

The assay deals with recombinant human FcγRIIa (131H)-glutathione-S-transferase (human) (UniProt P12318). As to the kind of experiment: AlphaScreen competition: the antibody inhibits binding of FcγRIIa (131H)-GST to biotinylated human IgG1 (m6). A general note: Alpha assays give light when donor and acceptor beads are brought close together.

Consider wild-type romosozumab (antibody), for which the IC50 (read off the curve) is 100 nM.

Take “romosozumab PARG (SEQ ID NO: 8) C-terminal variant (antibody)”: the IC50 (read off the curve) worked out at 20 nM.
